Square brackets hold non-standard residues; d marks the D form. Ends that are not written are not given here. Tyr(3-NO2) = N[C@@H](Cc1ccc(O)c([N+](=O)[O-])c1)C(=O)O; 2Abz = Nc1ccccc1C(=O)O
Experiments:
Format in all cases: biochemical
[1] = target: uPA (Homo sapiens, UniProt P00749); assay: FRET peptide cleavage efficiency with uPA
[2] = target: T1, matriptase (Homo sapiens, UniProt Q9Y5Y6); assay: FRET peptide cleavage efficiency with matriptase
T1 construct: purchased R&D Systems 3946-SEB
T1 sequence (Q9Y5Y6 615-855 limits assumed): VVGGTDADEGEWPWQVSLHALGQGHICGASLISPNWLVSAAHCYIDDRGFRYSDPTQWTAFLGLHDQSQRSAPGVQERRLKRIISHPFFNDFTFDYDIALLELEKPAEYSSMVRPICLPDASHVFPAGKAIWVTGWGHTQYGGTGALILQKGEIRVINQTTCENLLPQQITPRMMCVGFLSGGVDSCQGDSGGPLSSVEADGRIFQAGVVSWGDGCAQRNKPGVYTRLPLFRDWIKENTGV

[3] = target: T2, MMP-2 (Homo sapiens, UniProt P08253); assay: FRET peptide cleavage efficiency with MMP-2
T2 construct: purchased SIGMA PF023
T2 sequence (P08253 110-660): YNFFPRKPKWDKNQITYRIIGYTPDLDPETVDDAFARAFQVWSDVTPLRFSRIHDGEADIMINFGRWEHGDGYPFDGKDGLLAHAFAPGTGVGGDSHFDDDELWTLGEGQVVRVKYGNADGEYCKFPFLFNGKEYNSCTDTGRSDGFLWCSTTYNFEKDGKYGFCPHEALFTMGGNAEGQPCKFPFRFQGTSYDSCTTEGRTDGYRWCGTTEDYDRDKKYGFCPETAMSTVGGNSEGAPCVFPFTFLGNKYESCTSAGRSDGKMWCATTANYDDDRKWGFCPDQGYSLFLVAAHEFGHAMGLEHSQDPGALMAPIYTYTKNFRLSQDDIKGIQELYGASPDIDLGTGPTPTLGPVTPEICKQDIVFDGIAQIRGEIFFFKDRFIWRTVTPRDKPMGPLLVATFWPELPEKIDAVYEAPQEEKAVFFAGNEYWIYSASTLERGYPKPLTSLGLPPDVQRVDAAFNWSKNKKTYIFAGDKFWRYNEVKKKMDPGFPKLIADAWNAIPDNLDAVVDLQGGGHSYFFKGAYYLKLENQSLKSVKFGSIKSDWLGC

[4] = target: T3, MMP-7 (Homo sapiens, UniProt P09237); assay: FRET peptide cleavage efficiency with MMP-7 (standard pH 7.5; also pH 6.5)
T3 construct: purchased SIGMA CC1059
T3 sequence (P09237 95-267): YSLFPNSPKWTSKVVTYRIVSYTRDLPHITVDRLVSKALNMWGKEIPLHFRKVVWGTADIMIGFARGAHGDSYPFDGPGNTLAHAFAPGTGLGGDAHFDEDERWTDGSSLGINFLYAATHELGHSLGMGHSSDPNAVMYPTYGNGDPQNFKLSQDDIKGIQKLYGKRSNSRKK

[5] = target: T4, MMP-9 (Homo sapiens, UniProt P14780); assay: FRET peptide cleavage efficiency with MMP-9 (standard pH 7.5; also pH 6.5)
T4 construct: purchased SIGMA PF024
T4 sequence (P14780 94-707): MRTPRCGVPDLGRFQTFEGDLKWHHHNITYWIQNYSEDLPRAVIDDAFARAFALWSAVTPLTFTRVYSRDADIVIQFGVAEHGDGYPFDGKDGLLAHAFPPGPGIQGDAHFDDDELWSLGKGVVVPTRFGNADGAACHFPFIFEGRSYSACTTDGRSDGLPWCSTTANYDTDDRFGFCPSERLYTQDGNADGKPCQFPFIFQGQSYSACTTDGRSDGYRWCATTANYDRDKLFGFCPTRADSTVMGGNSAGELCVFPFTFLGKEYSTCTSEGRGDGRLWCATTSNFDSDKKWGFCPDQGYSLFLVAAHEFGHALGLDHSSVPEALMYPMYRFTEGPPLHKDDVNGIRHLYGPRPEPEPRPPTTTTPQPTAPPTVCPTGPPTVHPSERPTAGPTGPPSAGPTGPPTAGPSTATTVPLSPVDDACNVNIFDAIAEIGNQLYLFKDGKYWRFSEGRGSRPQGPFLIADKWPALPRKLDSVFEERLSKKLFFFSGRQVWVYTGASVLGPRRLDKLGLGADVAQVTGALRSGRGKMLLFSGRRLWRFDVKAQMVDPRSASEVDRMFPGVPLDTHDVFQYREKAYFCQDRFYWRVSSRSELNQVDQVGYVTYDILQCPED

[6] = t = 15 min, 200 uM linker, 1 ug/ml protease, 37° C., buffer A pH 8.5
[7] = 200 uM linker, 1 ug/ml protease, 37° C., buffer A pH 8.5
[8] = 200 uM linker, 1 ug/ml protease, 37° C., buffer B pH 9.0
[9] = t = 15 min, 200 uM linker, 1 ug/ml protease, 37° C., buffer C pH 7.5
[10] = t = 60 min, 200 uM linker, 1 ug/ml protease, 37° C., buffer C pH 7.5
[11] = t = 120 min, 200 uM linker, 1 ug/ml protease, 37° C., buffer C pH 7.5
[12] = t = 15 min, standard conditions (Table 8)
[13] = t = 60 min, standard conditions (Table 8)
[14] = t = 120 min, standard conditions (Table 8)

| Sequence | % cleavage uPA t = 15 min [1, 6] [%] | % cleavage uPA t = 60 min [1, 7] [%] | % cleavage uPA t = 120 min [1, 7] [%] | % cleavage Matriptase t = 15 min [2, 8] [%] | % cleavage Matriptase t = 60 min [2, 8] [%] | % cleavage Matriptase t = 120 min [2, 8] [%] | % cleavage MMP-2 t = 15 min ([3]; t = 15 min (Table 9)) [%] | % cleavage MMP-2 t = 15 min [3, 9] [%] | % cleavage MMP-2 t = 60 min ([3]; t = 60 min (Table 9)) [%] | % cleavage MMP-2 t = 60 min [3, 10] [%] | % cleavage MMP-2 t = 120 min ([3]; t = 120 min (Table 9)) [%] | % cleavage MMP-2 t = 120 min [3, 11] [%] | % cleavage MMP-7 t = 15 min ([4]; t = 15 min (Table 9)) [%] | % cleavage MMP-7 t = 60 min ([4]; t = 60 min (Table 9)) [%] | % cleavage MMP-7 t = 120 min ([4]; t = 120 min (Table 9)) [%] | % cleavage MMP-9 t = 15 min ([5]; t = 15 min (Table 9)) [%] | % cleavage MMP-9 t = 60 min ([5]; t = 60 min (Table 9)) [%] | % cleavage MMP-9 t = 120 min ([5]; t = 120 min (Table 9)) [%] | further results |
| --- | --- | --- | --- | --- | --- | --- | --- | --- | --- | --- | --- | --- | --- | --- | --- | --- | --- | --- | --- |
| RGRRVANPLGYFGKL ([2Abz]RGRRVANPLGYFGKL[Tyr(3-NO2)]-NH2) [LNK058] | 1 | 5 | 10 | 88 | 100 | 100 | 68 | 68 | 100 | 100 | 100 | 100 | 0 | 0 | 0 | 31 | 97 | 100 |  |
| SGRVANYFGKL ([2Abz]SGRVANYFGKL[Tyr(3-NO2)]-NH2) [LNK054] | 33 | 100 | 100 | 0 | 0 | 0 | 78 | 78 | 100 | 100 | 100 | 100 | 0 | 0 | 0 | 49 | 100 | 100 |  |
| RGRRPLGLAGGSG ([2Abz]RGRRPLGLAGGSG[Tyr(3-NO2)]-NH2) [LNK051] | 0 | 0 | 0 | 22 | 72 | 100 | 73 | 73 | 100 | 100 | 100 | 100 | 3 | 8 | 14 | 62 | 100 | 100 |  |
| RGRKSPQPLVD ([2Abz]RGRKSPQPLVD[Tyr(3-NO2)]-NH2) [LNK040] |  |  |  |  |  |  | 8 |  | 28 |  | 47 |  | 29 | 74 | 93 | 25 | 69 | 89 | % vcleavage uPA t = 15 min [1, 12]: 0%; % cleavage uPA t = 60 min ([1]; standard conditions (Table 8)): 0%; % cleavage uPA t = 120 min ([1]; standard conditions (Table 8)): 0%; % cleavage Matriptase t = 15 min ([2]; standard conditions (Table 8)): 100%; % cleavage Matriptase t = 60 min ([2]; standard conditions (Table 8)): 100%; % cleavage Matriptase t = 120 min ([2]; standard conditions (Table 8)): 100%; % cleavage MMP-2 t = 60 min [3, 13]: 28%; % cleavage MMP-2 t = 120 min [3, 14]: 47%; % cleavage MMP-7 t = 15 min [4, 12]: 29%; % cleavage MMP-7 t = 60 min [4, 13]: 74%; % cleavage MMP-7 t = 120 min [4, 14]: 93%; % cleavage MMP-9 t = 15 min [5, 12]: 25%; % cleavage MMP-9 t = 60 min [5, 13]: 69%; % cleavage MMP-9 t = 120 min [5, 14]: 89% |

— US20240400614A1, “CLEAVABLE PEPTIDES AND METHODS OF USE THEREOF” (Bright Peak Therapeutics AG, priority 2023, published 2024)
